Patent publication US20240174744A1 (SCIRHOM, published 2024)

B1: antibody 16 (antibody, V domains shown)
VH: QVTLKESGPGILQPSQTLSLTCSFSGFSLSTFALGVGWIRQPSGRGLEWLAHIWWDDDKYYNPALKSRLTISKDTSKNHVFLKIANVDTADTATYYCARITTYYYGMDYWGQGTSVTVSS
VL: DIVLSQSPATLSVTPGDSVSLFCRASQSIGNHLHWYQQESHASPRLLIKYASQSISGIPSRFSGSGSGTDFTLSINSVETEDFGMYFCQQSYNWPLTFGAGTKLELK
notes: Mouse IgG, kappa light chain; also called clone #16; m16
B2: antibody 3 (antibody, V domains shown)
VH: QVTLKESGPGILQPSQTLSLTCSFSGFSLTTFAMGIGWVRQPSGKGLEWLAHIWWDGEKYNNPVLKSRLTISKDTSKNQVFLRIANVDTPDTATYYCARISSIYYIIDNWGQGTSVTVSS
VL: DIVLTQSPATLSVTPGHSVSLSCRASQSISNNLHWYQKKSHESPRLLIKYVSQSISGIPSRFSGSGSGTDFTLSINSVETEDFGMYFCQQSYNWPLTFGAGTKLELK
notes: Mouse IgG, kappa light chain; also called clone #3; purified antibody 3

Legend:
[1] = molecular target: T1, human iRhom1, endogenously expressed on RH-30 cells (human, UniProt Q96CC6 1-855); experiment: FACS on RH-30 cells (iRhom1-positive, not iRhom2-positive)
T1 construct: RH-30 cells are described as endogenously negative for iRhom2 but endogenously expressing iRhom1; also called NP_071895.3
T1 sequence: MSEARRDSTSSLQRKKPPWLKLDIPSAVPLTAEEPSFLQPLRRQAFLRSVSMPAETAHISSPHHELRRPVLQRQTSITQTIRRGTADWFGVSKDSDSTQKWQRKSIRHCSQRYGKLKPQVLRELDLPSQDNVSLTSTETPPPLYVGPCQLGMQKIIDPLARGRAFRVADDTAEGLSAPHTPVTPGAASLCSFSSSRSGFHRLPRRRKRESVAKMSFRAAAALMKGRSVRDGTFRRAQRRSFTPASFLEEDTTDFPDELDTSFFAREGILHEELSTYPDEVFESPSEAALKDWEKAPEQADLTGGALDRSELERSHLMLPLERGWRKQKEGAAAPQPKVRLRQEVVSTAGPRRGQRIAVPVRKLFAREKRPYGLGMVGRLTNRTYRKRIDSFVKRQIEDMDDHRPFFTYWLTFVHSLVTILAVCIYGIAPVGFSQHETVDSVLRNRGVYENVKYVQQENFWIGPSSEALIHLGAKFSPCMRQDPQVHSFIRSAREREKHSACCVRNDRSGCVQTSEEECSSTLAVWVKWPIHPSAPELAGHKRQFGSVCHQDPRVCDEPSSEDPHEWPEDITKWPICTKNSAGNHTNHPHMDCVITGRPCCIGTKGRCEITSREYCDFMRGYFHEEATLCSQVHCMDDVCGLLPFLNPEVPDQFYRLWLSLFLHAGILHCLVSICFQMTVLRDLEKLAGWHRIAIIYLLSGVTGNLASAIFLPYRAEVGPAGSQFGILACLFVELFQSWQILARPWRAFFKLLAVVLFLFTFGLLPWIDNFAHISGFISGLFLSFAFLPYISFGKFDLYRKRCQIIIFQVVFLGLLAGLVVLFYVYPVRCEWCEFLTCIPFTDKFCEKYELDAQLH

[2] = molecular target: T2, miR2-FL-WT-FLAG (mouse iRhom2 full length wild type C-terminally tagged with the triple-FLAG epitope) (mouse, UniProt Q80WQ6 1-827); experiment: FACS on MEF-DKO-miR2-FL-WT-FLAG cells
T2 construct: also called expressed by MEF-DKO-miR2-FL-WT-FLAG cells
T2 sequence: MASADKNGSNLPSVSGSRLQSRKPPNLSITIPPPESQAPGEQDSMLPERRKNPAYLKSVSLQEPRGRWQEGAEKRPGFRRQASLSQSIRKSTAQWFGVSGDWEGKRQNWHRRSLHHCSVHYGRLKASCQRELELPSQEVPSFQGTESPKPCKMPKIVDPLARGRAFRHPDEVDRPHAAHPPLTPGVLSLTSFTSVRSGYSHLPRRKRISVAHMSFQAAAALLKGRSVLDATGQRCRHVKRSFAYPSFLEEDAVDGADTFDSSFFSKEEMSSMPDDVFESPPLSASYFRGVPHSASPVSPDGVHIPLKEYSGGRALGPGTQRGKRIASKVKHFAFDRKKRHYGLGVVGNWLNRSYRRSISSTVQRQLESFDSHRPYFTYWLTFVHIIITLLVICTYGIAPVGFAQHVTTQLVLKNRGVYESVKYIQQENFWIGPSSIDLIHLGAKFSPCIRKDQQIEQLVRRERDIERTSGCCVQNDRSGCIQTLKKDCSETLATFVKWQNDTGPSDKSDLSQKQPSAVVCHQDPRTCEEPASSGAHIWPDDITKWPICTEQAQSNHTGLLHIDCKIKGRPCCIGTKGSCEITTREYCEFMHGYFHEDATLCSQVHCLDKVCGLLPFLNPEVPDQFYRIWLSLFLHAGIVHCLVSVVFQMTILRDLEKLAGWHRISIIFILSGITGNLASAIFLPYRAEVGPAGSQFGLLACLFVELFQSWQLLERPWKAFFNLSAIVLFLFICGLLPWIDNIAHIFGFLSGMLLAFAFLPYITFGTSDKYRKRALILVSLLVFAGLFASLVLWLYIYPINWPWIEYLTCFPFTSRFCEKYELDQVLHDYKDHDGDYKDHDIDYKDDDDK

| Binder | binding result [1] | binding result [2] |
| --- | --- | --- |
| B1 | no binding (tested: 3 µg/ml) | – |
| B2 | – | no binding (tested: 3 µg/ml) |
